Data from the DeepSol protein solubility set.

Experiment: soluble on expression in E. coli; label from the status in PepcDB or PDB records

Sequence	soluble on expression in E. coli
MTRIISIVSGKGGTGKTTVTANLSVALGEMGRKVLAVDGDLTMANLSLVLGVDDVNITLHDVLAGDAKLEDAIYMTQFENVYILPGAVDWEHVIKADPRKLPEVIKSLKGKYDFILIDCPAGLQLRAMSAMLSGEEAILVTNPEISCLTDTMKVGMVLKKAGLAILGFILNRYGRSERDIPPEAAQDVMDVPLLAVIPEDPVIREGTLEGIPAVKYKPESKGAQAFIKLAEEVDKLAGIKAKI	soluble
MGSDKIHHHHHHMGIGIIIASHGKFAEGIHQSGSMIFGEQEKVQVVTFMPNEGPDDLYGHFNNAIQQFDADDEILVLADLWSGSPFNQASRVAGENPDRKMAIITGLNLPMLIQAYTERLMDAGAGVEQVAANIIKESKDGIKALPEDLNPVEETAATEKVVNALQGAIPAGTVIGDGKLKINLARVDTRLLHGQVATAWTPASKADRIIVASDEVAQDDLRKQLIKQAAPGGVKANVVPISKLIEASKDPRFGNTHALILFQTPQDALRAVEGGVEINELNVGSMAHSTGKTMVNNVLSMDKEDVATFEKLRDLGVTFDVRKVPNDSKKNLFELIQKTNIK	not soluble
MATPAFVKRITRSDAVLSLGVNFSKIYFKFVMWTGRYDRQAVPIPEPYILAMWHGRLIMAPMLQTKSKPLVALISGHRDGKIISRVGAAFGIQTAVGSSSKGGMRAAREMMRLGKSGHSLFVTPDGPRGPRMRINSEGVLDMARLTGLPILPVSVSLSRHKLLRSWDRLMLPGLFAKVAIRFGEPITVEAGSPTAEMAERLQAALTAAQNETDRIVGLQPVETALEHHHHHH	soluble
RENFPGVSWDSLPDELLLGIFSCLCLPELLKVSGVCKRWYRLASDESLWQTLDEFRVQHMDLSNSVIEVSTLHGILSQCSKLQNLSLEGLRLSDPIVNTLAKNSNLVRLNLSGCSGFSEFALQTLLSSCSRLDELNLSWCFDFTEKHVQVAVAHVSETITQLNLSGYRKNLQKSDLSTLVRRCPNLVHLDLSDSVMLKNDCFQEFFQLNYLQHLSLSRCYDIIPETLLELGEIPTLKTLQVFGIVPDGTLQLLKEALPHLQINCSHFTTIAR	soluble
MEKLLQWSIANSQGDKEAMARAGQPDPKLLQQLFGGGGPDDPTLMKESMAVIMNPEVDLETKLVAFDNFEMLIENLDNANNIENLKLWEPLLDVLVQTKDEELRAAALSIIGTAVQNNLDSQNNFMKYDNGLRSLIEIASDKTKPLDVRTKAFYALSNLIRNHKDISEKFFKLNGLDCIAPVLSDNTAKPKLKMRAIALLTAYLSSVKIDENIISVLRKDGVIESTIECLSDESNLNIIDRVLSFLSHLISSGIKFNEQELHKLNEGYKHIEPLKDRLNEDDYLAVKYVL	soluble
MGSDKIHHHHHHMKIAYYLPSLQAPGGIERIVTFKANYFAEHFEGYDITIITSEQMGKAPHFPLSPKVKHIDLGVSFDLPYSQSIVSKVLKYPFRYYRFKQRLSNLLNELKPDITISTMRRELNFITKLKDGSLKIGEFHVSRYAYGAEALKRKSPIVNMIKKRWANRFVKNLSKLSRVIILTSEGAKDWPELTNISIIPNPISTPVEGKQTDILSHNAIAVGRYAPQKGFDMLIPAWSIVAQRHPDWKLHIYGEGDLKEKFTKLIDELQLNNNCLLHHTVSNIAEKYCMSSIFVLSSRYEGFGLVLAEAMSCGIPCVSFDCPHGPSNIIKDHEDGLLVEKENIKELADKICYLIENENVRIKMGHKARENVKRFLPENVMPQWKNLFESLTYSSK	not soluble
MARVTTGITSSHIPALGAAIQTGTSDNDYWGPVFKGYQPIRDWIKQPGNMPDVVILVYNDHASAFDMNIIPTFAIGCAETFKPADEGWGPRPVPDVKGHPDLAWHIAQSLILDEFDMTIMNQMDVDHGCTVPLSMIFGEPEEWPCKVIPFPVNVVTYPPPSGKRCFALGDSIRAAVESFPEDLNVHVWGTGGMSHQLQGPRAGLINKEFDLNFIDKLISDPEELSKMPHIQYLRESGSEGVELVMWLIMRGALPEKVRDLYTFYHIPASNTALGAMILQPEETAGTPLEPRKVMSGHSLAQA	soluble
MLSFAPYRFSQVLEHQCTRNGSVLIRHTEEFTSKTCSRCGHIHYSLGGQKIFKCSNCGNHLPRDWNGALGNFLKALWDTTLEHHHHHH	not soluble
MAHHHHHHMEDNDWTGHHSGDGDQNEGMMLNRMEAVMDEVEKLRNLNGALTLELQLAEKKLVIRHERIETLKHGLRQECAAKQELQRTLEAERVCHQAQLQDARNDALHWRQLYDDLLNNSHTRSRKHNGRHRNEHRSSTPTLEAALTSREPSSLADSPVAMGHGIIVKPIRGGGQKELN	soluble
MFFIGIFGIEEKAKVIRQIDVEICPFCTRKGSYTLFKVYNYLHFFFIPVLRWNTRYFIQTSCCSKVYLITNPQLAHDLEYGKDVPITLADVELFRNLQGMYQEGIDSDFCPNCGNRVSKNFLYCPYCGQKLELEHHHHHH	not soluble
MKYPPSLVSLIRELSRLPGIGPKSAQRLAFHLFEQPREDIERLASALLEAKRDLHVCPICFNITDAEKCDVCADPSRDQRTICVVEEPGDVIALERSGEYRGLYHVLHGVLSPMNGVGPDKLHIKPLLPRVGQGMEVILATGTTVEGDATALYLQRLLEPLGAAISRIAYGVPVGGSLEYTDEVTLGRALTGRQTVSKPQPPQRPGDEDGADGAAVPASRLEHHHHHH	soluble
MSLRASDDKALQYAIAEITEIATGFGLDFYPMRYEICPAEIIYTFGAYGMPTRFSHWSFGKQFFRMKLQYDLGLSKIYELVINSDPCYAFLLDTNSLIQNKLIVAHVLAHCDFFKNNIRFSNTKRDMVESMSATAERVKAYEHKYGKEEVETFLDAVLAIQEHIDPSLMRPKLAWSIDDLEEEEVEKKKASQYDDLWNLDNRNKKQERSNVRKKKKIPPQPEKDLLLFIEEYSRELEDWQRDILTMMREEMLYFWPQLETKIMNEGWASFWHQRILREMDLTSDEAIEFAKLNAGVVQPSKTSINPYYLGIKMFEDIEERYNNPTEEMKRRGVKPGSGRDKIFEVREIEWDVSFLRNYLNKDLVMREDMYLFQRQGKEYKVIDKEWEHVRDQLVNMRTNGGFPYLVVEDGDYLKNGELYIKHSYEGIELDLKYLEKVLPYLHQLWGRTVHMESIVESKGVVFSYDGKMVHRKYVEGHHHHHH	not soluble
MSLNNMRLFKKSLLAVTVTLATQQAFAAGFQLNAQSATGLGRAFAGDAVIADNAAVMSRNPAAMALFDEMALSLGFETITTMIDVKNVSYRGVLGNSVSVQDTDDVGGTSVAPNIHLIVPVNEQFAWGVNAYSNFGTKTEFSDSYPASEYGGLTDVKSFNLGLAGSYRVNKEWSFGAGLDLIYGQGTMKRIAGTSFPASTIVVNPTTVIPARGTSLLNVDKADGWAVGFNLGTVYEMDENNRFGLSYRYSPEFKAKDDYGQEITLPLPDIAEFSGFHKIENTQFAVHYSVQWIGWSAFDKIEFRNLVTSRSSVGALTKGSYDKMYEWQDGWHYSIGGTYYLNSDWTLRAGYMYDTSAQDSRTSISVPDSDRQWLSAGFTYNIDDKSNVDFGFTYLMGKDVAVSENDAGSKLTATTHADAILLGLQYSRTFEGGSHHHHHH	soluble
SLARELMRTQKEIFALILDFAKRTDSIRAVTLEGSRANPNIKQDKFCDYDISFFLNAKNLESFKNNEEWLKIFGNILMLQKPESMELYPPDLREGWFSFLVLFDDGVRIDLSLIPLADIEWYKDNERLMRVLLDKDNQFMPINEPSDSAFFIKPLTKQSFLDCCNELYWLYVCTHKDILRGELLLANAHLAMMREGLLILLSWRVALRQNNFAFSLGKEYKFLPHFLEPKERKTLYKCYKLGDLKQAQKTLKIMEKFFAKNARELIKVHFKDLHTLPYAKVAKQYVRILKHKIV	soluble
MGNTMCPKMESAFSLLGKRWNGLIIHVLMDGPKRFKEITETIPMISQKMLAERLKELEQNEIVERQVLPETPVKVIYTLTEKGTALQAVFQEMQAWADQFCEPGDTVCEEEKLEHHHHHH	soluble
MAIGFICSSPDAELFSEKSRMSSSVLLGCLLCCMDWSAAVPGKTEPFRKLFDAIMIKKLKSCSAAYPSDLDEGSMCDMADASPTSLELGLSKLDKES	not soluble
MSTDAFYSTAFPTIPGTPNLLGYTAYSPQSIFNDSRPASSVNNTPSTSFNSSIHSRNRSIAMLHSISHILSNDDSLGSTTESSTPSTPEIHPSNAPAKKTIPLVLISDTDEECDKKSRKRRIRSKSSKKSRGIRKSRKHEASDYRKKIMLGTFEGRKIVLKLMK	not soluble
MSLTVIIKSMETPEEIEGKSLVHWQTWRESYDDLLPAEFQDTMTLERCRFFSQKYPENTLIAMDGVKVVGFISYGNFRDETIQAGEIIALYVLKDYYGKGIAQKLMKAALTALNHFSEIFLWVLKDNKRAIAFYQKMGFTFDGQEKILELGKPIKEKRMVFYSKEGHHHHHH	soluble
MGSDKIHHHHHHMESKSAVQLYLELLKKTILFEIWLEYEAYLPASLHISKELEFEPVTVPLPLFIKQYAENHNLKIVKPNVSKSERHDGMDWPRAAHSMIGRERMNQLQEAMETVVRENIEGDFIETGVWRGGSCIFMNGFLQANNITDRNVWVADSFEGLPAPNLEQYPKDYGDYLHTFDYLRVSLEQVQENFKKYDLLNDQVKFLKGWFKDTLPTAPIAAIAIARLDGDMYESTMDGLVNLYDKVSKGGYIIIDDYGLPPCAEAVTDFRNHRNLKAPITKIDVFGVYWRKE	not soluble
MGSDKIHHHHHHMSSFAEFSRLALTLEPWRQHIVFVGGWAFRLYGYEPRAYTADHKPIFTQDADVAYDKRELIEGDIKTALEGAGFTEQPNLAGGFRPPAMRYNLDGDENGFYAEFLTPLTGSGKKRDGKGGLKEDATERYAGIVAQKLRFLEVLLFKPWLVTIPKEESGLDEAVADLRVPNPVSFMIQKLLIRDRREGKKRAQDVLYIHGTLQIFYGVVENDLVPIWKELEATLHANQRKSVREGVQELFSEMNDVIREAAEIPDDKLDPEAMLQLCREGFEELFGDI	not soluble
MSTARFADPDQIRAGFSRAMSQMYQHEVPLYGTLMELVSEVNAQVMSRDSQVLNSLRQTGEIQRLDMERHGAIRVGTAQELATLARLFAVMGMQPVGYYDLTAAGVPVHSTAFRAVHEQALQVSPFRVFTSLLRLELIESDSLREFASRVLAKRTIFTPGALALIEKHEADGGLSEPDAAEFIQQALETFRWHHTATVSLDEYRQLNAQHRLIADVVAFRGPHINHLTPRTLDIDAVQSGMPGKGITPKAVVEGPPPRQCPILLRQTSFKALEEPISFIGQGGSQSGSHSARFGEIEQRGAALTPKGRELYDRLLNEARDALGEFPNEANAVRYAGLLEKAFQAFPDSHDEMRAQGLAYFRYFPTDTGVAVRVSGTLEQLIEAGHVRFEPLAYEDFLPVSAAGIFQSNLGDNAQAHYAANSNRQDFERALGRGTLDELALYADTQRRSLEDCAEVLGLNESLEHHHHHH	not soluble
MAHHHHHHMSVIGVFSKGRATGHASVMSVLRYVPRARVPWQPSRFGRENLADDDMAQLWGTGRYRTGPGNYNSGYSTKKTHALEDSTVSIIPKHELEKFMPDISLGSKALVTPVSLMSARNGHRVTHDLIHSYDPYIGRLQKPAVVDHDNITVEDPNRVGLNAATLDCRSRIYRWLRRGPFFQEDNYFRRSTKLQRNGPVPVSVHEVPLMQRIIRLARRGHLKAACEEYRRVTSVPPVDVYRALTAACVPGAKLADAIAIFEDGHSRLFYVARDGEVLHNMLRCAIRAKHRVRVMWVYNVMVGRHYENVVVRAEVDVIWRYRIASLALEYLLDSNAGEEARTVYDYLVENELVDCDLHVRLGHVMQQALKEGKTVHVQQDALDGMALSQNVVAVAPQVAVAVYARYLETMQEGAAWTDARGLPLTDPAKTGADTNGAAAVAWLKAAFPDIDPVAVLRLARFRRSSKDLMAKDRPVYVQRAAQWVELLSSAHQTREEAPLTYLRKSRPSMANPNVRVAWLPERQRAHALLASDEGFKFAYAGPHTRFVEETFAYGENTLQSRYLAQQPVHTEVTPSVALGAAAVAAGMSSGSALPRLPGSSAAPQILHASVLLDGSLNGSSGSGTSTLRSGRNESAKAAASPTAGISSRPSSASSSAGLDDTHF	not soluble
